Measured values reported in the supplement of paper PMC10567573.

B1: TCEB3B (parent)
chain: STTALGDKQRKANESKGTRESWDS
B2: ZNF449 (parent)
chain: HKKKSPGEKPHRCPQCGKCFARKS

Variants of: B1
Assay: protein stability index of a GFP-peptide fusion (GPS, HEK-293T) (PSI 1-6); higher = more stable
Settings: c terminus: a fixed tail appended
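Note: lentivirally expressed fusions sorted by FACS into six bins by GFP to DsRed ratio, PSI derived from sequencing read proportions per bin multiplied by bin number.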

Protein stability index: each site, then its substitutions
T3: G 4.22; N 3.77; Q 4.35
D23: C 1.98; M 2.32
A12: F 3.76; M 3.83; V 3.88; L 4.03
S15: C 3.58; E 4.97; L 3.52
S24: A 4.38
N13: P 3.83
G17: L 3.21
T18: L 3.14; E 4.17
S1: R 3.88
Q9: V 3.85; M 4.08
D7: H 3.58; Y 3; E 4.36; N 3.43
A4: C 3.86; T 4.46; Y 3.36; W 3.62
T2: R 5.3; M 3.94; F 3.75; H 3.77
G6: W 3.29; K 3.3
L5: F 3.29; D 4.22; Y 3.37
R10: F 4.15; E 4.57; P 4.43
W22: L 5.25
R19: F 3.86; P 4.84; I 4.58
E14: T 3.42; G 3.85; Y 2.95; R 3.61; K 3.33; C 2.77
E20: F 4.6; C 3.66
S21: K 4.97; G 5.25
K16: A 4.45; M 3.44; C 2.97
K8: V 4.17; Y 3.11
K11: Y 4

Variants of: B2
Assay: as above
Settings: c terminus: a fixed tail appended

Protein stability index, by site and new letter:
C16: G 4.53; T 3.71; R 3.42; Y 4.59; E 4.71; H 2.71; P 4.48; Q 4.18; I 4.24
S24: F 1.99; I 3.32; D 3.97; V 1.78; P 3.76; K 3.99; T 3.8; C 3.82; W 2
H11: Y 3.02; R 3.08; D 3.21; T 3.49; W 3.54; C 4.53; M 3.18; E 4.17; L 3.19; K 3.28; N 3.41; G 3.57; A 3.42
C13: S 4.4; T 4.67; F 2.71; W 3.15; N 4.95; D 4.36; R 3.91; M 4.82; V 4.69; Q 3.88; K 4.26; H 4.07; I 4.05
K4: S 3.14; Y 2.33; A 2.87; R 4.01; P 3.72; M 3.37; G 3.13; C 3.75; T 3.89; H 3.41; W 2.98; Q 2.84; L 4.2; F 3.52; V 3.66
K23: Y 3.12; S 2.03; W 2.68; I 2.09; N 2.72; E 2.5; D 3.57; L 2.04; F 1.75; R 3.3; G 3.12; P 2.43
S5: H 3.32; Y 3.55; P 2.71; M 3.18; I 3.26; V 2.77; N 3.88; E 3.7; Q 3.84; A 4.1
K3: F 3.19; H 4.24; L 3.46; Y 2.02; I 3.15; P 3.12; G 3.33; V 3.51; M 3.42; D 2.5; A 3.73; W 3.1; R 3.46; Q 3.14
P14: I 3.62; Y 3.75; T 3.54; S 3.01; A 3.01; H 3.26; R 3; E 3.79; K 3.78; F 2.72; W 2.57
K2: D 2.92; V 3.25; M 2.52; G 3.43; F 3.32; A 3.42; T 3.03; C 3.21; H 3.27; Y 2.37; W 3.04; L 3.41; Q 3.36; S 3.19; N 3.78; P 3.46; I 2.98
A21: D 3.51; I 2.92; L 3.26; Y 3.27; T 3.69; V 4.04; C 2.66
G17: D 3.86; C 3.31; Y 3.6; Q 3.66; N 3.75; H 3.44; W 3.41; F 3.79
H1: L 2.54; T 2.88; V 3.15; R 3.53; D 3.73; N 4.13; S 4.38; A 3.37; W 2.7; C 3.85; G 3.68; I 2.06; K 3.5
F20: N 5.19; I 4.38; R 3.96; L 4.18; E 4.11; V 3.97; P 1.49; A 3.64; H 4.62; Y 3.67; S 3.63
P6: N 3.44; F 3.36; D 2.73; Q 3.57; V 2.98; G 4.52; E 3.4; K 3.39; Y 3.94; I 3.19; W 3.05; T 4.38; R 3.51
C19: Y 3.99; I 4.05; V 3.41; A 3.36; T 3.44; H 4.35; N 3.79; F 3.48; M 2.54; D 3.66
K18: V 2.9; N 3.87; P 2.97; L 3.13; I 2.52; W 2.5; D 2.17; C 3.29; S 2.94; F 5.18; H 4.25
R22: H 3.83; G 3.46; N 3.45; V 3.15; D 3.82; K 3.83; S 2.92; L 3.64; Q 3.78; T 4.06; M 3.33
P10: Q 3.09; I 3.58; L 4.06; F 3.15; K 4.63; E 3.52; D 3.74; S 3.86; M 4.07; V 3.65; N 3.3; C 2.56; T 3.83; R 3.31
R12: Q 3.19; G 3.1; P 2.74; L 3.85; H 3.59; F 2.56; W 2.68; Y 3.3; N 3.92; S 4.11; T 2.74; K 3.98
K9: F 3.38; W 3.66; Y 3.75; H 2.57; M 4.23; L 2.42
Q15: I 3.45; Y 3.6; W 3.45; H 3.24; E 3.38; M 3.95; K 3.25; F 3.19
E8: F 3.14; W 3.36; Q 2.99; D 3.81; R 3.99; K 3.57; M 2.93; I 3.17; N 2.75; Y 3.9; P 3.63; L 3.01; V 3.79; H 3.92; A 3.41; C 3.64
G7: I 2.94; A 3.46; Y 3.55; N 3.52; T 3.58; S 3.36; P 4.25; V 3.76; Q 3.2; F 3.53; M 3.46
